# Where two headings read alike, the source gives them in different places.
# Columns and labels:
# [1] = Pharmacokinetic studies in diabetic minipigs; format: in vivo, Bama minipigs; settings: s.c., two-compartmental model, n = 3
# type 1 diabetic mice [2] = assay: Intraperitoneal glucose tolerance test in diabetic mice; format: in vivo; settings: i.p. glucose 1.5 g/kg, n = 5
# [3] = system: STZ-induced type 1 diabetic mice; assay: Type 1 diabetes treatment study in mice; format: in vivo, C57BL/6 mice
# mouse nostrin = target: T1, mouse nostrin (Mus musculus, UniProt Q6WKZ7); assay: SPR binding to mouse nostrin; settings: for Kd: read-out: KD for nostrin, SPR, 25 °C, DPBS pH 7.4
# T1 sequence (Q6WKZ7 1-506): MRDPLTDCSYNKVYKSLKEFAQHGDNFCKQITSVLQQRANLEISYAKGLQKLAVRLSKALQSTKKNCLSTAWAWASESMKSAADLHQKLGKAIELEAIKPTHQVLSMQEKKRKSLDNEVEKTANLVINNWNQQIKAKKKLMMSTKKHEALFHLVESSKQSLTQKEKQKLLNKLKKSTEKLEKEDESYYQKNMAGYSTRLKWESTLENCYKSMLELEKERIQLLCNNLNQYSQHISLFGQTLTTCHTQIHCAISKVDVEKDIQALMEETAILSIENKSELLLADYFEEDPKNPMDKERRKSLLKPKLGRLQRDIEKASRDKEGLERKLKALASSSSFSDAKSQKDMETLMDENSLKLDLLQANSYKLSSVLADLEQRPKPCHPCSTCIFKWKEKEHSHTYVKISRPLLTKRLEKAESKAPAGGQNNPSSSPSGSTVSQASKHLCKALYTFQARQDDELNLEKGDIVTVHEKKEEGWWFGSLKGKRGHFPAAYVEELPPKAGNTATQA
# type 1 diabetic minipigs [4] = assay: Type 1 diabetes treatment study in minipigs; format: in vivo, Bama minipigs; settings: n = 3; statistical time 0-168 h for insulin-129 and 0-24 h for Lantus
# type 1 diabetic minipigs [5] = assay: Fully automated insulin delivery system in diabetic minipigs; format: in vivo; settings: 48 h
# [6] = Pharmacokinetics after subcutaneous injection in diabetic mice; format: in vivo; settings: s.c. 12 mg/kg
# [7] = system: STZ-induced type 1 diabetic mice; assay: Isoglycaemic clamp at hyperglycaemia in diabetic mice; format: in vivo; settings: BG clamped at 400 mg/dL; one day after 12 mg/kg; n = 5
# human nostrin = target: T2, human nostrin (Homo sapiens, UniProt Q8IVI9); assay: SPR binding to human nostrin; settings: read-out: KD for human nostrin
# T2 sequence (Q8IVI9 1-506): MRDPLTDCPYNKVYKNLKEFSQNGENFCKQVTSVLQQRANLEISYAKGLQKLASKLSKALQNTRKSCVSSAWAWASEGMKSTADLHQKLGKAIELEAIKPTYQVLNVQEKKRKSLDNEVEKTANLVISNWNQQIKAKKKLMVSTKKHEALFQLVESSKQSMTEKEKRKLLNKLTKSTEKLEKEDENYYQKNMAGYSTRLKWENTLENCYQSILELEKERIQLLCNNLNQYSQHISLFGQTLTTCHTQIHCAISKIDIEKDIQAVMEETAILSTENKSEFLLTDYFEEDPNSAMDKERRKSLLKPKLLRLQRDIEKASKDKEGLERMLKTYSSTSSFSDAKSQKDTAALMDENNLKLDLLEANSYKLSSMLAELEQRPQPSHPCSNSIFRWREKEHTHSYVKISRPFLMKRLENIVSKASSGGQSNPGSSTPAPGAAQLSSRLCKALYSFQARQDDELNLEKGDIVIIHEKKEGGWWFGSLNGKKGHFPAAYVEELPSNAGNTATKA
# type 1 diabetic mice [8] = assay: In vivo glucose-responsive insulin release in mice; settings: for initial PIL: before glucose 3 g/kg
# [9] = Pharmacokinetics after intravenous injection in healthy mice; format: in vivo, C57BL/6J mice; settings: i.v. 1 nmol/kg, two-compartment model, n = 5
# diabetic mice = assay: Toxicity evaluation and histomorphology in mice; format: in vivo; settings: one week post-injection, 10 mg/kg
# healthy mice = assay: Isoglycaemic; format: in vivo; settings: summary statement
# type 1 diabetic minipigs [10] = assay: In vivo blood glucose-responsive insulin release in minipigs; settings: for BG rise within 30 minutes: one day after insulin-129, i.v. glucose infusion
# human IgG1-Fc = human IgG1-Fc (Homo sapiens, UniProt P01857); assay: SPR binding to human IgG1-Fc; settings: read-out: KD for human IgG1-Fc
# [11] = five days after 12 mg/kg, n = 5
# [12] = one day after 12 mg/kg, i.p. glucose 3 g/kg
# [13] = one day after 12 mg/kg, i.p. glucose 3 g/kg, n = 5
substance,measurement,setting,value
insulin-129: recombinant human insulin with 4-carboxy-3-fluorophenylboronic acid (FPBA) covalently conjugated at A1 and B29 sites,half-life,[1],127.5 ± 36.6 h
same,BG before glucose administration,type 1 diabetic mice [2]; day 1 after 12 mg/kg,96.8 ± 19.7 mg/dL
same,peaking BG within 15 minutes,type 1 diabetic mice [2]; day 1 after 12 mg/kg,194.8 ± 31.9 mg/dL
same,BG before glucose administration,type 1 diabetic mice [2]; day 5 after 12 mg/kg,163.1 ± 27.7 mg/dL
same,peaking BG within 15 minutes,type 1 diabetic mice [2]; day 5 after 12 mg/kg,310.3 ± 44.2 mg/dL
same,lowest average BG level,"[3]; one hour after s.c. 12 mg/kg, mean ± s.d., n = 5, SD",76.0 ± 6.4 mg/dL
same,treatment duration among the three insulin analogues,"[3]; s.c. 4 mg/kg, insulin-1, insulin-29 and insulin-129, n = 5",longest duration
same,hypoglycaemia (BG < 70 mg/dL),"[3]; s.c. 4, 8 and 12 mg/kg, any mouse",No hypoglycaemia
same,extension of normoglycaemia compared with insulin glargine,[3]; single injection,approximately 47.5 folds
same,time kept normoglycaemic,"[3]; single s.c. 4 mg/kg, n = 5",46 h
same,time kept normoglycaemic,"[3]; single s.c. 8 mg/kg, n = 5",142 h
same,time kept normoglycaemic,"[3]; single s.c. 12 mg/kg, n = 5",190 h
same,increase in KD for nostrin,mouse nostrin; glucose from 0 to 20 mM,19.5 fold
same,increase in KD for nostrin,mouse nostrin; glucose from 5 to 20 mM,8.4 fold
same,Kd,mouse nostrin; 5 mM glucose,201 nM
same,Kd,mouse nostrin; 10 mM glucose,605 nM
same,Kd,mouse nostrin; 20 mM glucose,1680 nM
same,Kd,mouse nostrin; absence of glucose,86 nM
same,time BG remained within the target range (70 to 200 mg/dL),type 1 diabetic minipigs [4],73.0%
same,BG levels below 50 mg/dL,type 1 diabetic minipigs [5]; first of three minipigs,0%
same,"BG levels below 50 mg/dL, average","type 1 diabetic minipigs [5]; mean ± s.d., n = 3, SD",1.7 ± 2.2%
same,BG levels below 50 mg/dL,type 1 diabetic minipigs [5]; second of three minipigs,1.0%
same,BG levels below 50 mg/dL,type 1 diabetic minipigs [5]; third of three minipigs,4.2%
same,time to peak plasma insulin-129 level,[6]; ELISA,within one hour
same,peak average plasma insulin-129 level (PIL),"[6]; ELISA, n = 5",1320.0 ± 41.3 μU/mL
same,t1/2α,"[6]; two-compartment model, n = 5",5.4 ± 1.3 h
same,t1/2β,"[6]; two-compartment model, n = 5",147.8 ± 16.8 h
same,mean glucose infusion rate compared with insulin glargine (5 U/kg),[7],comparable mean glucose infusion rates
same,Kd,human nostrin,241 nM
same,synchronised increase in insulin level upon glucose injection,"type 1 diabetic mice [8]; STZ-induced type 1 diabetic mice, summary statement",more than 3 fold
same,initial PIL,type 1 diabetic mice [8]; [11],210.2 ± 31.7 μU/mL
same,peak PIL,"type 1 diabetic mice [8]; five days after 12 mg/kg, i.p. glucose 3 g/kg, n = 5",573.7 ± 40.0 μU/mL
same,PIL after decline within 120 minutes,type 1 diabetic mice [8]; [11],204.3 ± 52.0 μU/mL
same,initial PIL,"type 1 diabetic mice [8]; one day after 12 mg/kg, n = 5",258.6 ± 37.6 μU/mL
same,BG by 45 minutes,type 1 diabetic mice [8]; [12],below 200 mg/dL
same,increase in PIL,type 1 diabetic mice [8]; [12],approximately 4.2 fold
same,BG spike at 30 minutes,type 1 diabetic mice [8]; [13],310.7 ± 29.2 mg/dL
same,peak PIL,type 1 diabetic mice [8]; [13],1080.4 ± 49.6 μU/mL
same,PIL after decline,"type 1 diabetic mice [8]; one day after 12 mg/kg, in tandem with the BG reduction, n = 5",257.3 ± 45.2 μU/mL
same,average t1/2β,[9],112.5 ± 17.4 h
same,histomorphological analysis of major organs by H&E staining,diabetic mice,no apparent pathological alterations
same,temporal change in blood glucose clearance determined by clamp studies,healthy mice,2 fold
same,baseline serum insulin-129 level,type 1 diabetic minipigs [10]; Pig I,369.1 μU/mL
same,peak serum insulin-129 level,"type 1 diabetic minipigs [10]; Pig I, glucose infusion",907.3 μU/mL
same,baseline serum insulin-129 level,type 1 diabetic minipigs [10]; Pig II,375.5 μU/mL
same,peak serum insulin-129 level,"type 1 diabetic minipigs [10]; Pig II, glucose infusion",1108.0 μU/mL
same,baseline serum insulin-129 level,type 1 diabetic minipigs [10]; Pig III,430.6 μU/mL
same,peak serum insulin-129 level,"type 1 diabetic minipigs [10]; Pig III, glucose infusion",1520.5 μU/mL
same,BG rise within 30 minutes,type 1 diabetic minipigs [10]; Pig Ⅰ,399.6 mg/dL
same,BG rise within 30 minutes,type 1 diabetic minipigs [10]; Pig Ⅱ,316.8 mg/dL
same,BG rise within 30 minutes,type 1 diabetic minipigs [10]; Pig Ⅲ,599.4 mg/dL
same,BG by 45 minutes,"type 1 diabetic minipigs [10]; Pigs Ⅰ, Ⅱ and Ⅲ",below 200 mg/dL
same,rise of serum insulin-129 level from baseline,"type 1 diabetic minipigs [10]; glucose infusion, Pigs I, II and III",approximately threefold
same,Kd,human IgG1-Fc,36.7 nM
